Patent EP4574846A1
pKd: −log10 of the molar value.

Experiments:
[1] = molecular target: human VEGFA165 (human) (UniProt P15692); assay: cell-based or functional assay
[2] = molecular target: human VEGFA165 (human) (UniProt P15692); assay: SPR Biacore 8K, VEGFA165 (GenScript) on CM5 at low immobilization, protein as analyte, 1:1 model

human VEGFA165 (human), sequence (P15692 other isoform, or with tags, fused parts or gaps limits assumed): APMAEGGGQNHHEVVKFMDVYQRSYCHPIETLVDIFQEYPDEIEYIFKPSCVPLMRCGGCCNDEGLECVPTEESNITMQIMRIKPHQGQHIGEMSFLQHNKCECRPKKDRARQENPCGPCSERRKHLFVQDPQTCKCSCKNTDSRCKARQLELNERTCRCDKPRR

| Substance | HUVEC proliferation inhibition IC50 [1] [nM] | HUVEC proliferation inhibition Maximum inhibition rate (%) [1] [%] | pKd [2] | koff [2] [s⁻¹] | kon [2] [M⁻¹ s⁻¹] |
| --- | --- | --- | --- | --- | --- |
| Aflibercept (Fc fusion) | 0.81 | 60 | 10.23 | 9.57e-05 | 1.64e+06 |
| human IgG1 antibody (hIgG1 control) that binds to HIV | – | 0 | – | – | – |
